The values below come from patent US20140072544A1, “POLYBACTERIAL PREPARATION WITH HEALTH BENEFITS: ANTIOXIDANT EFFECT, REDUCTION OF CHOLESTEROL CONCENTRATION, ANTI-INFLAMMATORY IMMUNOMODULATING EFFECT AND RELEASE OF BIOACTIVE PEPTIDES INHIBITING ANGIOTENSIN-CONVERTING ENZYME” (LB BULGARICUM PLC, priority 2011, published 2014).

This experiment addresses angiotensin-converting enzyme (ACE) (Homo sapiens, UniProt P12821). Kind of experiment: ACE-inhibiting activity of peptide extracts. The experiment is classed as biochemical. Particulars: purified single peptide released by L. helveticus A1 (HPLC fractionation, ion exchange). On the procedure:
Purified strains with inoculum of 0.1% are incubated for 18 hours in 9% skimmed milk at 37° C. After adjusting the pH to 4.3 with 50% lactic acid the samples are centrifuged (5000 g, 10 min). Supernatant is dosed at reverse-phase cartridge and washed with water. The process is followed by elution with 60% acetonitrile in 0.1% trifluoroacetic acid and then evaporation and reconstitution of the resulting extract. The extract or its dilutions are analyzed for inhibition of ACE.
A total peptide extract is prepared. Enzymatic reaction is carried out by a conventional test, but using different dilutions of peptide extracts as their volume is 20 μl. The enzyme solution was 40 μl with an activity of 0.1 U/ml. The substrate hipuril-histidil-leucine is dissolved in borate buffer at pH 8.3 and has a volume of 190 μl. The final concentration of the substrate is 6 mM, and those of sodium chloride is 300 mM. The reaction is conducted at 37° C. for 30 minutes. The seizing is performed with 100 microliters of 4 n HCl, and the extraction of the freed hippuric acid is done with 1 ml of ethyl acetate. After evaporation of the solvent, the residue is dissolved in 1 ml of water and tested spectrophotometrically at 228 nm. […]
where A is the absorbance under the upper reaction, C is the absorbance without enzyme, B is the absorbance without the involvement of peptide extracts. […]

angiotensin-converting enzyme (ACE), sequence (P12821 30-1306, species assumed): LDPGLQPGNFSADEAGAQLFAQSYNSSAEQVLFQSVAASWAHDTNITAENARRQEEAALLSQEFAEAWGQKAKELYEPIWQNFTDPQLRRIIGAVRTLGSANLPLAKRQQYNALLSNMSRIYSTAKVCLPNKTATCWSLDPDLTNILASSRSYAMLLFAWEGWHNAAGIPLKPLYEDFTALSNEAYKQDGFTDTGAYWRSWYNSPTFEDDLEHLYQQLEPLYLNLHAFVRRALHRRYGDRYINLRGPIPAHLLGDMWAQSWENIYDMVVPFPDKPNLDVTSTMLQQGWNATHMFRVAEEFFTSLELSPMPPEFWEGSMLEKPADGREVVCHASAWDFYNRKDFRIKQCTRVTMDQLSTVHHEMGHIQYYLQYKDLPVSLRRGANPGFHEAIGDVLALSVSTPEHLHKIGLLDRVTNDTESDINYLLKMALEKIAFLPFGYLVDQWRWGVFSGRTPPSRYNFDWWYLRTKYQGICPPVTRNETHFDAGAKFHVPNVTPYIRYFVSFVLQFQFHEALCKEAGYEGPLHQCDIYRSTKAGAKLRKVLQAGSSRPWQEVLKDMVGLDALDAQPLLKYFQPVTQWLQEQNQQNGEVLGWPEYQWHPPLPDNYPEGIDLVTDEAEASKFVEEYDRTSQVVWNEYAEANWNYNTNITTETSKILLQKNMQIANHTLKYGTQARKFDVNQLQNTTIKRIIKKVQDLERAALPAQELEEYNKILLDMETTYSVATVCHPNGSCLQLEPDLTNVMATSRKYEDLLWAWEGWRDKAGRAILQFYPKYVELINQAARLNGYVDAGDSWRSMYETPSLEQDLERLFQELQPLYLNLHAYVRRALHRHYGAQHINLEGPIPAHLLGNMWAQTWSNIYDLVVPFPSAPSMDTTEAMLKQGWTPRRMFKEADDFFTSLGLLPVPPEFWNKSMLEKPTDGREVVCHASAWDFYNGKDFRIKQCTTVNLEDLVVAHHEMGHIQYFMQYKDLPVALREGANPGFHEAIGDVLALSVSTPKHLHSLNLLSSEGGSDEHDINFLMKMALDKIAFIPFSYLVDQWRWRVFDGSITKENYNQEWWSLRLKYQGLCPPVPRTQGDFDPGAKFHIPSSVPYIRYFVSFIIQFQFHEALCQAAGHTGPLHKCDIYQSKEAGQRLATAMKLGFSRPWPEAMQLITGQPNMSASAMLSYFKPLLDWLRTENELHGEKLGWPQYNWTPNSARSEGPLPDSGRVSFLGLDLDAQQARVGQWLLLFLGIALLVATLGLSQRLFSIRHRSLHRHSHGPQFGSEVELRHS

On to “Ala-Leu-Pro-Met (ALPM; printed: Ala-Leu-Pro-Met) [anti-ACE peptide released by the strain L. helveticus A1, purified from fermented milk]”, for which the Anti-ACE activity % is 78.0%.
